Assay: soluble on expression in E. coli; label from the status in PepcDB or PDB records

Row | Sequence | soluble on expression in E. coli
1 | MAHHHHHHMIDLTGKTSLITGASSGIGSAIARLLHKLGSKVIISGSNEEKLKSLGNALKDNYTIEVCNLANKEECSNLISKTSNLDILVCNAGITSDTLAIRMKDQDFDKVIDINLKANFILNREAIKKMIQKRYGRIINISSIVGIAGNPGQANYCASKAGLIGMTKSLSYEVATRGITVNAVAPGFIKSDMTDKLNEKQREAIVQKIPLGTYGIPEDVAYAVAFLASNNASYITGQTLHVNGGMLMV | soluble
2 | MAGDPMTPTQNVPEDRIQIGQLRSAYGLNGWLWVYSNTEPMSNMFDYLPWFIETKAGWQTVDVKRWKPHGKGLVVSLKNVSDRNAAESLIGSTIWVAKSQLPKTDVDEYYWSDLKGLTVLGLDEEEQEVNLGQIHELFETGANDVMVVRATADSVDAEERMIPWHKDVVQRVDLEAGRIYVNWGVDYLEHHHHHH | soluble
3 | GSCEKENIGIEVTPVNAKFIITPVVIDATTGTDVTQSAEISFSKGNGTYEGTPELASESININAKYKGMTGSASVTIPALKAGQFGAKEVTIILSENFFAQEESSNSQIETTKHSGFKNNTSDYWYYITVTYTKKEGSEVIKNDYEGDDSEIKNIIDAYNKGVREDKVTLNDVQVLAHSRFSVFVDYMKTTSVYQIIEKSPKRDGNPVASFTVDSYNTIVSPKNEQIPGHGHAPSHGHGHGHGDDSNAGGGIIIAD | soluble
4 | MGSDKIHHHHHHMKFCIIGYPVRHSISPRLYNEYFKRAGMNHSYGMEEIPPESFDTEIRRILEEYDGFNATIPHKERVMRYVEPSEDAQRIKAVNCVFRGKGYNTDWVGVVKSLEGVEVKEPVVVVGAGGAARAVIYALLQMGVKDIWVVNRTIERAKALDFPVKIFSLDQLDEVVKKAKSLFNTTSVGMKGEELPVSDDSLKNLSLVYDVIYFDTPLVVKARKLGVKHIIKGNLMFYYQAMENLKIWGIYDEEVFKEVFGEVLK | not soluble
5 | ETTSSIGEKVWDDKDNQDGKRPEKVSVNLLANGEKVKTLDVTSETNWKYEFKDLPKYDEGKKIEYTVTEDHVKDYTTDINGTTITNKYTPGETSATVTKNWDDNNNQDGKRPTEIKVELYQDGKATGKTAILNESNNWTHTWTGLDEKAKGQQVKYTVEELTKVKGYTTHVDNNDMGNLITTNKYTPETTSSIGEKVWDDKDNQDGKRPEKVSVNLLANGEKVKTLDVTSETNWKYEFKDLPKYDEGKKIEYTVTEDHVKDYTTDINGTTITNKYTPGETSATVTKNWDDNNNQDGKRPTEIKVELYQDGKATGKTAILNESNNWTHTWTGLDEKAKGQQVKYTVEELTKVKGYTTHVDNNDMGNLITTNKYT | soluble
6 | AHHHHHHGSISREQILEVLEKYDKEKITIGVIGSHSALDITDGAKEEGFPTLVVAQRGRHKTYEKYFKLRKTRDGLVKGFIDEVIVLEKFSQIIDIQEELRKRNVIFIPNRSFVVYTGIDRVENEFLVPMFGTRSLLRTEERSEEKSYYWLLEKAKLPYPEEVKPEEIDEVGLVIVKLPHAKKRLERGFFTAASYKEFKEKSEKLIRLGVITREDLEKARIERYIIGPVFNFDFFYSPIDEEIELLGIDWRFETSLDGHVRLPAAQQLTLPEWQFEPEYTVCGHASSTLRESLLEKVFDMAEKYVEATKKYYPPGIIGPFTLQTAVDKDLNFYIYDVAPRTGGGTNIHMAMGHPYGNSLWRKPMSTGRRIALEIKRAIELDELEKVVT | not soluble
7 | MAKRKLTQNQTRRIQSNNAKTLHRHKKKEIEWSDEMLGESQEGVVVTRYSIHADVENEQGEIYRCNLRRTLSSLVVGDKVVWRKGNEQLQGVSGVIEAIHPRENEISRPDYYDGLKPIAANIDRIIIVSAVLPTLSLNIIDRYLVVCEIAGITPLIVLNKVDLLAQEQRQEIEDQLKIYQDIGYEILMISAKSGENMEKLTALLAQGTAIFVGQSGVGKSSLINHILPSVNAQVGDVSETSGLGQHTTTSSRLYHLPQGGNLIDSPGIREFGLWHLDAEQITKGYREFQYVLGTCKFRDCKHLSDPGCALREAVEQGKISPVRYDNYHRLIESLSETKSQRHFSLV | not soluble
8 | FTQMVIRLHIYHLVSTVSPHNVNIDASIAARGLSGEGYRGHYFWDEIYIMPFFIQHLPEVARALLMFRYHRLDAAREYARDNGYHGAMYPWQTADDGREETPTIHYNPKSGAWDPDLSCRQRHVSIAVFYNAWRYVHDTGDTEFLNSYGAEMMFEIARFWASIATFSPDDGRYHIEGVMGPDEFHEELPGSGKPGLKDNSYTNIMTAWLLEKAIEISQRLDPAVMDGLMEKIGIGHDEFMKWRDISGKMNVLIDQNGILEQFDGYMGLKELDWEHYKLKYGNIHRMDRILKAENDSPDHYKVAKQADVLMTFYTLSPAEVCAILENLGYHVADPLRFVRDNYAFYEPRTSHGSTLSKVVHSIISSYLPNGHEMAWNWFIEALRSDIHDTQGGTTPEGLHCGVMAGTIDTVT | not soluble
9 | MPAVESNMFPLGKQAPPFALTNVIDGNVVRLEDVKSDVATVIMFICNHCPFVKHVQHELVRLANDYMPKGVSFVAINSNDAEQYPEDSPENMKKVAKELGYPFPYLYDETQEVAKAYDAACTPDFYIFDRELKCVYRGQLDDSRPNNGIPVTGESIRAALDALLEGRPVPEKQKPSIGCSIKWKPSA | not soluble
10 | SQKQKALLQRVETDITSVVDNFTQIVNVSRVSDPPVKNSQETYMMEMRASRMATQVLLKDFLMSLWSVVNLLPHQWWQVQAADSLLKLVSELKQTAIFSGFASLNDHVEQRIEEFDQEAEKTNRLLARIADDASANLKELESHYYSSAQRLTLDI | not soluble
11 | GFVNVTGMFRDRARTNRADGNQLILFDQSDFPNGVAPPSGFPFAYPQVAGIIGEEAAQNARRIDNQILNQRGLERSDFQFRVGQSAVQQRAVFLNSEVGLGNDATLYAFGGLSYKNGIGAPFRRLPFSTSAMPYRASNTDPALFPNGFQPEMNSDVVDQSLTIGVEGTIGGWTWDLSNSYGRNSLDYQMDNTVNASLLQASPTSIYAGGHAFSQNVTNLDVSRFFDDALAGINVAFGGAYRTDRYQIFSGEEASYRNYGRVQLIDDTSAASPRLVTRDTLGKEPGTQGFVGFRPENEVDRTRSNVAAYLDTEVNLTENLLVTAAGRYENYSDFGGTLNGRLAARWGLLDGRLNLRGSASTGFRAPSLHQIYFNEVRT | not soluble
12 | MKDQGRSPRKRTGGRRRPNHKKKKHELGKDTVETQVGEQRLKTVDSRGNTQKVRAVKTDVASIADGAETIEATIENVVENPSNPNYARRNIITKGAILETSEGQARVTSRPGQHGQVNAVLVEAAALEHHHHHH | soluble
13 | MGSDKIHHHHHHMARRKEHSHDEIRVMAIEAAIALLQQQGVQGLSLRKIASEIGYVPSTLINIFGSYNYLLLAVSEATLQLLMSHLSAVSENDSLRHIIVMAQKYSEFAHSQRQCFKLVFELQLLESEHLPASQGQLIANLFRLIENELALLFPNETIEQQLQMSRVLWGGIHGLTALSLDNKLFADTVSLPALLESHVTGYLQGMGYQREEACC | not soluble
14 | MSLTNITQCKNRRCGGELGDFTGYIESPNYPGNYPANTECTWTINPPPKRRILIVVPEIFLPIEDDCGDYLVMRKTSSSNSVTTYETCQTYERPIAFTSRSKKLWIQFKSNEGNSARGFQVPYVTYDEDYQELIEDIVRDGRLYASENHQEILKDKKLIKALFDVLAHPQNYFKYTAQESREMFPRSFIRLLRSKVSRFLRPYKEGHHHHHH | not soluble
15 | MDSEKIKIFTRNYKGSLIMSKRSPKSVSEKLEIVLLRLEEGKSLSWLTRNQGISKDTLSNWVRKYKEAGVDGLEESRQWKKYSKELKEQAVSDYLNGLGSLKDLTKKYGISDPYVLRSWIKSYTSGKELKATSKGMRRMKQGRKTTFEERIEIVNFTLAHEKDYQGAVEKYGVSYQQIYSWVRKFEKDGSNGLLDRRGKGLTSKPNLTPEEELRLKIKQQEERIKYLEMENGLLKKLEEIKRRNRRLEHHHHHH | soluble
16 | MGSDKIHHHHHHMKEIRIILMGTGNVGLNVLRIIDASNRRRSAFSIKVVGVSDSRSYASGRNLDISSIISNKEKTGRISDRAFSGPEDLMGEAADLLVDCTPASRDGVREYSLYRMAFESGMNVVTANKSGLANKWHDIMDSANQNSKYIRYEATVAGGVPLFSVLDYSILPSKVKRFRGIVSSTINYVIRNMANGRSLRDVVDDAIKKGIAESNPQDDLNGLDAARKSVILVNHIFGTEYTLNDVEYSGVDERSYNANDRLVTEVYVDDRRPVAVSRIISLNKDDFLMSIGMDGLGYQIETDSNGTVNVSDIYDGPYETAGAVVNDILLLSKVQK | not soluble

Reference: the DeepSol protein solubility set
